Results reported in paper PMC8544208 (Antibodies, 2021).

Target: T1, C5b6 with bound C7 and C8, assembled on the SPR chip (human | , UniProt P01031 19-673; P01031 752-1676; P13671 22-934; P10643 23-843; P07357 31-584; …)
T1 construct: complement C5 beta chain, as part of C5b; complement C5 alpha' chain of C5b; complement component C6; complement component C7; complement component C8 alpha chain; complement component C8 beta chain; complement component C8 gamma chain; Formed by injecting C7 (4 nM) and then C8 (8 nM) over C5b6 captured on the anti-C5 tool antibody; source: assembled on the SPR chip from bought C5b6, C7 and C8 …
Test: SPR; MAC assembly assay, Biacore 8K, HBS-EP+; anti-C5 antibody amine coupled to a CM5 chip, C5 or C5b6 captured at 4 nM; C7, C8 and C9 flowed over in succession at 4, 8 and 50 nM, also with single components left out
Settings: both partners purified

B1: Complement C9 (natural protein)
chain: not shown
notes: complement component C9; Unlabelled C9 as used in SPR; source: bought: Complement Technology (Comptech)
B1: binds.
